According to paper PMC2821881:

Biological target: phosphorylated microtubule-associated protein (pMAP) labelled by the 12E8 antibody (chick (endogenous in primary chick neurons))
Assay: FRET or BRET

Substance “human cofilin-GFP (from UniProt P23528 1-166) (natural protein)” has an FRET efficiency of 41%.
